In patent US20150218281A1 (Ablynx, published 2015):
Changes are numbered by the printed parent chain.

B1: OX40L15B07 (VHH)
VHH: EVQLVESGGGLVQAGGSLRLSCAASRSIGRLDRMGWYRHRTGEPRELVATITGGSSINYGDFVKGRFTISIDNAKNTVYLQMNNLKPEDTAVYYCNFNKYVTSRDTWGQGTQVTVSS
notes: monovalent Nanobody from E. coli; not shown: C-terminal c-myc and His6 tag
B2: OX40L01E07 (VHH)
VHH: EVQLVESGGGLVQAGGSLRLSCAASGRTFSSIYAKGWFRQAPGKEREFVAAISRSGRSTSYADSVKGRFTISRDNAKNTVYLQMNSLKPEDTAVYYCAAVGGATTVTASEWDYWGLGTQVTVSS
notes: as for B1
B3: OX40L01B11 (VHH)
VHH: EVQLVESGGGLVQAGGSLRLSCVASGRSFSTYIMGWFRQAPGKEREFVATISRSGITTRSADSVKGRFTISRDNAKNTVYLQMNSLKPEDTAVYYCAAGPYVEQTLGLYQTLGPWDYWGQGTQVTVSS
notes: as for B1

Assays:
[1] = target: T1, biotinylated hOX40L (R&D Systems, biotinylated in house) (human, UniProt P23510 51-183, biotinylated with Sulfo-NHS-LC-Biotin, sites not stated); test: AlphaScreen, 120 pM biotinylated hOX40L + 0.2 nM hOX40/Fc
T1 construct: same bought protein as m10, biotinylated; also called biotinylated OX40L
T1 sequence: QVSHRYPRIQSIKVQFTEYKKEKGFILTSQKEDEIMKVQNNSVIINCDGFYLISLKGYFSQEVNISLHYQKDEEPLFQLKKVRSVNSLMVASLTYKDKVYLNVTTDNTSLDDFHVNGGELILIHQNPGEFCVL
Protocol: (§1) Next, streptavidin donor beads were added and incubated for an additional 1 hour. Fluorescence was measured by reading plates on the EnVision Multilabel Plate Reader using an excitation wavelength of 680 nm and an emission wavelength of 520 nm.

[2] = target: T2, recombinant human OX40L (extracellular domain, R&D Systems) (human, UniProt P23510 51-183); test: SPR, second injection after competitor OX40L01E07
T2 construct: also called hOX40L; rec. hOX40L
T2 sequence: T1 sequence
Protocol: (§2) In addition, it was investigated to what extend the 7 anti-OX40L Nanobodies have a different or identical or overlapping epitope. Standard conditions were as described above. […] 1300 RU. A dual injection was performed at 10 μl/min for 2 min, starting with 500 nM of the first Nanobody, followed by 500 nM of the second Nanobody. After 10 min dissociation, regeneration of the surface was performed by injection of 50 mM NaOH for 5-20 sec at 100 μl/min.

[3] = target: T3, full length human OX40L expressed on CHO cells (human, UniProt P23510 1-183); test: competition FACS, 3.1 nM hOX40/Fc on hOX40L expressing cells
T3 construct: CHO K1 stably transfected as described for CAKI cells; also called CHO-hOX40L; hOX40L expressing CHO cells
T3 sequence: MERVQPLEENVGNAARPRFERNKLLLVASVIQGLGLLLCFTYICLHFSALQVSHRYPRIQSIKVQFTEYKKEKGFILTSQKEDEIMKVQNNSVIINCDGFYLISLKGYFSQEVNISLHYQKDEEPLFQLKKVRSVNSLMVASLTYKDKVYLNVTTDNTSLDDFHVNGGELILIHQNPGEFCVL

[4] = target: T2, recombinant human OX40L (extracellular …); test: SPR, second injection after competitor OX40L15B07
Protocol: as §2

[5] = target: T4, cynomolgus OX40L expressed on CHO cells (cynomolgus monkey, UniProt P23510 1-183 (human entry)); test: FACS binding to CHO cells, anti-c-myc detection
T4 construct: also called cynoOX40L; CHO-cynoOX40L
T4 chain: T3 sequence with R55Q, K73E
Protocol: (§3) Transfection of CHO K1 with the respective expression plasmid DNA and selection of clones with high expression levels was performed as described in Example 1. Binding of the Nanobodies to the cell surface expressed OX40L was assessed by FACS analysis of cells as described below.
(§4) After washing bound Nanobodies were detected in FACSArray™ using mouse anti-c-myc and PE conjugated goat anti-mouse IgG.

[6] = target: T3, full length human OX40L expressed on …; test: FACS binding to CHO cells, anti-c-myc detection
Protocol: as §3, §4

[7] = target: T1, biotinylated hOX40L (R&D Systems, …); test: AlphaScreen, 31 pM biotinylated hOX40L + 80 pM OX40/Fc
Protocol: as §1

[8] = target: T2, recombinant human OX40L (extracellular …); test: SPR, second injection after competitor OX40L01B11
Protocol: as §2

[9] = target: T3, full length human OX40L expressed on …; test: cell-based or functional assay
[10] = target: T2, recombinant human OX40L (extracellular …); test: SPR, second injection after competitor OX40L19D08
Protocol: as §2

[11] = target: T3, full length human OX40L expressed on …; test: competition FACS with hOX40/Fc on CHO-hOX40L
Protocol: The competition FACS assay was performed as described in example 2.

[12] = target: T2, recombinant human OX40L (extracellular …); test: SPR, second injection after competitor OX40L18E09
Protocol: as §2

[13] = target: T2, recombinant human OX40L (extracellular …); test: SPR, after second injection of buffer HBS-EP+
Protocol: as §2

[14] = target: T2, recombinant human OX40L (extracellular …); test: SPR, second injection after competitor OX40L19A07
Protocol: as §2

[15] = target: T2, recombinant human OX40L (extracellular …); test: SPR, second injection after competitor OX40L01E10
Protocol: as §2

[16] = target: T1, biotinylated hOX40L (R&D Systems, …); test: hOX40L/hOX40 AlphaScreen, sample heated 1 min at Tm+10 C
Protocol: as §1
In the TSA assay, Nanobodies were diluted to a concentration of 0.2 mg/ml and melting temperature (Tm) was determined at different pH by stepwise increase in temperature in presence of Sypro Orange, a dye that binds to […] residues that become exposed upon unfolding of the protein, using the Lightcycler (Roche) for detection. […] In SEC analysis, the Nanobodies were analyzed on a Phenomenex matrix to allow detection of multimers, aggregates or ‘stickyness’.

Row | Binder | IC50 [1] [nM] | Binding Level sample 2 (RU) [2] [RU] | Binding Level sample 2 - sample 1 (RU) [2] [RU] | IC50 [3] [nM] | Binding Level sample 2 (RU) [4] [RU] | Binding Level sample 2 - sample 1 (RU) [4] [RU] | EC50 [5] [nM] | EC50 [6] [nM] | IC50 [7] [nM] | Binding Level sample 2 (RU) [8] [RU] | Binding Level sample 2 - sample 1 (RU) [8] [RU] | IC50, IL4 production, T-cell activation assay, donor 1 [9] [nM] | IC50, IL4 production, T-cell activation assay, donor 2 [9] [nM] | IC50, IL4 production, T-cell activation assay, donor 3 [9] [nM] | Binding Level sample 2 (RU) [10] [RU] | Binding Level sample 2 - sample 1 (RU) [10] [RU] | IC50 [11] [nM] | Binding Level sample 2 (RU) [12] [RU] | Binding Level sample 2 - sample 1 (RU) [12] [RU] | Binding Level sample 2 (RU) [13] [RU] | other results
1 | B1 | 0.3 | 198 | 12 | 1.61 | 198 | 5 | 3.23 | 2.43 | 0.125 | 324 | -9 | 236 | 249 | 73 | 217 | -7 | 2 | 189 | 2 | 155 | Binding Level sample 2 - sample 1 (RU) [13]: -40 RU; Binding Level sample 2 (RU) [14]: 200 RU; Binding Level sample 2 - sample 1 (RU) [14]: 26 RU; Binding Level sample 2 (RU) [15]: 237 RU; Binding Level sample 2 - sample 1 (RU) [15]: 17 RU
2 | B2 | 0.423 | 192 | 11 | 8.89 | 252 | 55 | 4.9 | 4.03 | 0.229 | 486 | 194 | 260 | 320 | 125 | 252 | 23 | 11 | 238 | 45 | 212 | IC50 [16]: 0.1 nM; IC50, IL4 production, T-cell activation assay, donor 4 [9]: 169 nM; Binding Level sample 2 - sample 1 (RU) [13]: -9 RU; Binding Level sample 2 (RU) [14]: 240 RU; Binding Level sample 2 - sample 1 (RU) [14]: 63 RU; Binding Level sample 2 (RU) [15]: 289 RU; Binding Level sample 2 - sample 1 (RU) [15]: 62 RU
3 | B3 | 0.375 | 399 | 205 | 5.61 | 259 | 61 | 3.39 | 2.94 | 0.278 | 380 | 7 | 230 | 188 | 80 | 433 | 205 | 5 | 238 | 48 | 383 | IC50 [16]: 0.6 nM; IC50, IL4 production, T-cell activation assay, donor 4 [9]: 220 nM; Binding Level sample 2 - sample 1 (RU) [13]: -57 RU; Binding Level sample 2 (RU) [14]: 358 RU; Binding Level sample 2 - sample 1 (RU) [14]: 180 RU; Binding Level sample 2 (RU) [15]: 296 RU; Binding Level sample 2 - sample 1 (RU) [15]: 76 RU
